Experimental data from patent US20090187998A1.

Biological target: wild-type serum response factor (SRF) in mouse heart (mouse) (UniProt Q9JM73)
Assay: cell-based or functional assay

Chain of UniProt Q9JM73 (Q9JM73 whole entry): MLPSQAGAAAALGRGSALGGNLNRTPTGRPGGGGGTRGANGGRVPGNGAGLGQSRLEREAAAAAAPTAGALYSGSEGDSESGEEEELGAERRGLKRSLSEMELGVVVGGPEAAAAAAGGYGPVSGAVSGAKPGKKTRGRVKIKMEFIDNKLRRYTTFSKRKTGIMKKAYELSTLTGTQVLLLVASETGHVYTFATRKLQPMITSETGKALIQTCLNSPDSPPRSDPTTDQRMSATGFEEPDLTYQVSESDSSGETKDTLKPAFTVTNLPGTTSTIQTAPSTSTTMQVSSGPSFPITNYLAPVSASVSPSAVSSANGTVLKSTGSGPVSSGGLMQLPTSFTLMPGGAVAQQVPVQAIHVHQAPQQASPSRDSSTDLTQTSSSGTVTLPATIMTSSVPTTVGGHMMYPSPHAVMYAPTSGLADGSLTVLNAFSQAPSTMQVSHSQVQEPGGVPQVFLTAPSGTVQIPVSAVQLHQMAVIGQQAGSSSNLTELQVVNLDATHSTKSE

dominant negative mutant form of human SRF (Thr->Ser at position 159 and Lys->Glu at position 163 of SRF) (from UniProt P11831 1-508)
EMSA: binding of SRF in heart protein lysate to the biotin-labeled wild-type SRE probe (Mild-R SRF Tg vs Non-Tg): 47 % reduced
